Data taken from publication PMC4376794, “Production of Functional Human Vitamin A Transporter/RBP Receptor (STRA6) for Structure Determination” (PLoS ONE, 2015).

Key:
[1] = target: T1, retinol binding protein (His-RBP) (UniProt P02753 19-201); assay: SPR; apo-RBP (6.9-219.3 uM) flowed over STRA6-GFP captured by its c-Myc tag on immobilised anti-c-Myc antibody (CM5, Biacore 3000); anti-HA antibody reference cell; room temperature; steady-state responses fitted to one site plus a linear low-affinity component; triplicate; settings: both partners purified
[2] = target: T1, retinol binding protein (His-RBP); assay: SPR; holo-RBP (retinol-loaded, 6.9-219.3 uM) flowed over STRA6-GFP captured by its c-Myc tag on immobilised anti-c-Myc antibody (CM5, Biacore 3000); anti-HA antibody reference cell; room temperature; steady-state responses fitted to one site plus a linear low-affinity component; triplicate; settings: both partners purified

B1: STRA6-GFP-c-Myc-His6 (STRA6-HRV3C-eGFP-Myc-His6) (receptor, human)
chain: MSSQPAGNQTSPGATEDYSYGSWYIDEPQGGEELQPEGEVPSCHTSIPPGLYHACLASLSILVLLLLAMLVRRRQLWPDCVRGRPGLPSPVDFLAGDRPRAVPAAVFMVLLSSLCLLLPDEDALPFLTLASAPSQDGKTEAPRGAWKILGLFYYAALYYPLAACATAGHTAAHLLGSTLSWAHLGVQVWQRAECPQVPKIYKYYSLLASLPLLLGLGFLSLWYPVQLVRSFSRRTGAGSKGLQSSYSEEYLRNLLCRKKLGSSYHTSKHGFLSWARVCLRHCIYTPQPGFHLPLKLVLSATLTGTAIYQVALLLLVGVVPTIQKVRAGVTTDVSYLLAGFGIVLSEDKQEVVELVKHHLWALEVCYISALVLSCLLTFLVLMRSLVTHRTNLRALHRGAALDLSPLHRSPHPSRQAIFCWMSFSAYQTAFICLGLLVQQIIFFLGTTALAFLVLMPVLHGRNLLLFRSLESSWPFWLTLALAVILQNMAAHWVFLETHDGHPQLTNRRVLYAATFLLFPLNVLVGAMVATWRVLLSALYNAIHLGQMDLSLLPPRAATLDPGYYTYRNFLKIEVSQSHPAMTAFCSLLLQAQSLLPRTMAAPQDSLRPGEEDEGMQLLQTKDSMAKGARPGASRGRARWGLAYTLLHNPTLQVFRKTALLGANGAQP
notes: human STRA6, full length (transcript variant 2); In SPR it was held by its C-terminal c-Myc tag on an anti-c-Myc antibody; also called vitamin A transporter/RBP receptor; RBP receptor; source: Pichia pastoris KM71H (pPICZ-A); on whole cells, in broken cells, and purified (solubilised in C12E9, Ni-NTA with exchange to DDM, size exclusion); not shown: GFP (eGFP), C-terminal, kept; c-Myc, …
Kd [1]: 22.4 µM | Kd [2]: 19.4 µM
